T1: human PD-1 ECD-Fc chimeric construct 10 (human, UniProt Q15116 21-170)
T1 construct: printed run together as P83IE84R; not shown: human IgG1 Fc, residues P101-K330
T1 chain: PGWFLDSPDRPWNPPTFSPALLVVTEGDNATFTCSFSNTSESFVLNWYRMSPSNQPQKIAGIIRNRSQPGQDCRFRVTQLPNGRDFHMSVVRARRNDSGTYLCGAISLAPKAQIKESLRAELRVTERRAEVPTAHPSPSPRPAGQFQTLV

T2: human PD-1 ECD-Fc chimeric construct 11 (human, UniProt Q15116 21-170)
T2 construct: printed run together as P83IE84R; not shown: human IgG1 Fc, residues P101-K330
T2 chain: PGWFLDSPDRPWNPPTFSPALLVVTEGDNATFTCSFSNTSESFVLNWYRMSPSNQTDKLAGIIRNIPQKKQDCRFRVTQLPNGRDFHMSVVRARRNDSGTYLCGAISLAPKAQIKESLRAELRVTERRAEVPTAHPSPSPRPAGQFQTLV

T3: human PD-1 ECD-Fc chimeric construct 19 (human, UniProt Q15116 21-170)
T3 construct: not shown: human IgG1 Fc, residues P101-K330
T3 chain: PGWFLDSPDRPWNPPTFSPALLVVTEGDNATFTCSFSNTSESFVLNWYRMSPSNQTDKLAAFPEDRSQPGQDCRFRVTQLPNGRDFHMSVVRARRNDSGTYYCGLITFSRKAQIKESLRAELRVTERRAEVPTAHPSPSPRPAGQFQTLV

T4: human PD-1 ECD-Fc chimeric construct 4 (human, UniProt Q15116 21-170)
T4 construct: not shown: human IgG1 Fc, residues P101-K330
T4 chain: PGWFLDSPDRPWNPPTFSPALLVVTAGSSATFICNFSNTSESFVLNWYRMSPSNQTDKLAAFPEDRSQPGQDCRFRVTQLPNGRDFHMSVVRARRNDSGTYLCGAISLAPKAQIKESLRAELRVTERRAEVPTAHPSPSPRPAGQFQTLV

T5: human PD-1 ECD-Fc chimeric construct 2 (human, UniProt Q15116 21-170)
T5 construct: not shown: human IgG1 Fc, residues P101-K330
T5 chain: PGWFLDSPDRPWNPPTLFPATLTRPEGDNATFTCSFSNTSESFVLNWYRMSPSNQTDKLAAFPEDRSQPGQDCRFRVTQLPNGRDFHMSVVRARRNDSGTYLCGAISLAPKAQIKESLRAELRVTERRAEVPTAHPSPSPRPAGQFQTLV


Tests used:
Experiment in all cases: SPR, Fab on captured PD-1-Fc
human PD-1 ECD-Fc E84A = target: T6, human PD-1 ECD-Fc E84A (human, UniProt Q15116 21-170)
T6 construct: not shown: human IgG1 Fc, residues P101-K330

human PD-1 ECD-Fc E61A = target: T7, human PD-1 ECD-Fc E61A (human, UniProt Q15116 21-170)
T7 construct: not shown: human IgG1 Fc, residues P101-K330
T7 sequence (Q15116 21-170 E61A): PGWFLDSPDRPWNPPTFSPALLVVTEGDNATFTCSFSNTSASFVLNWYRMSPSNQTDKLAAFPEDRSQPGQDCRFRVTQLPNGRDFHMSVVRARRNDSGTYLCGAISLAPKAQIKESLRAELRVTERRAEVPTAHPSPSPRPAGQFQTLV

human PD-1 ECD-Fc P101A = target: T8, human PD-1 ECD-Fc P101A (human, UniProt Q15116 21-170)
T8 construct: not shown: human IgG1 Fc, residues P101-K330

human PD-1 ECD-Fc N58A = target: T9, human PD-1 ECD-Fc N58A (human, UniProt Q15116 21-170)
T9 construct: not shown: human IgG1 Fc, residues P101-K330

human PD-1 ECD-Fc L128A = target: T10, human PD-1 ECD-Fc L128A (human, UniProt Q15116 21-170)
T10 construct: not shown: human IgG1 Fc, residues P101-K330

human PD-1 ECD-Fc S57A = target: T11, human PD-1 ECD-Fc S57A (human, UniProt Q15116 21-170)
T11 construct: not shown: human IgG1 Fc, residues P101-K330
T11 sequence (Q15116 21-170 S57A): as the sequence (Q15116 21-170 E61A) above, with S37A, A41E counted along it

human PD-1 ECD-Fc G103A = target: T12, human PD-1 ECD-Fc G103A (human, UniProt Q15116 21-170)
T12 construct: not shown: human IgG1 Fc, residues P101-K330

human PD-1 ECD-Fc A154G = target: T13, human PD-1 ECD-Fc A154G (human, UniProt Q15116 21-170)
T13 construct: not shown: human IgG1 Fc, residues P101-K330
T13 sequence (Q15116 21-170 A154G): as the sequence (Q15116 21-170 E61A) above, with A41E, A134G counted along it

human PD-1 ECD-Fc D26A = target: T14, human PD-1 ECD-Fc D26A (human, UniProt Q15116 21-170)
T14 construct: not shown: human IgG1 Fc, residues P101-K330
T14 sequence (Q15116 21-170 D26A): as the sequence (Q15116 21-170 E61A) above, with D6A, A41E counted along it

human PD-1 ECD-Fc N33A = target: T15, human PD-1 ECD-Fc N33A (human, UniProt Q15116 21-170)
T15 construct: not shown: human IgG1 Fc, residues P101-K330

human PD-1 ECD-Fc S87A = target: T16, human PD-1 ECD-Fc S87A (human, UniProt Q15116 21-170)
T16 construct: not shown: human IgG1 Fc, residues P101-K330
T16 sequence (Q15116 21-170 S87A): as the sequence (Q15116 21-170 E61A) above, with A41E, S67A counted along it

human PD-1 ECD-Fc D85A = target: T17, human PD-1 ECD-Fc D85A (human, UniProt Q15116 21-170)
T17 construct: not shown: human IgG1 Fc, residues P101-K330

human PD-1 ECD-Fc S157A = target: T18, human PD-1 ECD-Fc S157A (human, UniProt Q15116 21-170)
T18 construct: not shown: human IgG1 Fc, residues P101-K330
T18 sequence (Q15116 21-170 S157A): as the sequence (Q15116 21-170 E61A) above, with A41E, S137A counted along it

human PD-1 ECD-Fc G90A = target: T19, human PD-1 ECD-Fc G90A (human, UniProt Q15116 21-170)
T19 construct: not shown: human IgG1 Fc, residues P101-K330

human PD-1 ECD-Fc P162A = target: T20, human PD-1 ECD-Fc P162A (human, UniProt Q15116 21-170)
T20 construct: not shown: human IgG1 Fc, residues P101-K330

human PD-1 ECD-Fc P160A = target: T21, human PD-1 ECD-Fc P160A (human, UniProt Q15116 21-170)
T21 construct: not shown: human IgG1 Fc, residues P101-K330

human PD-1 ECD-Fc F56A = target: T22, human PD-1 ECD-Fc F56A (human, UniProt Q15116 21-170)
T22 construct: not shown: human IgG1 Fc, residues P101-K330
T22 sequence (Q15116 21-170 F56A): as the sequence (Q15116 21-170 E61A) above, with F36A, A41E counted along it

human PD-1 ECD-Fc K78A = target: T23, human PD-1 ECD-Fc K78A (human, UniProt Q15116 21-170)
T23 construct: not shown: human IgG1 Fc, residues P101-K330
T23 sequence (Q15116 21-170 K78A): as the sequence (Q15116 21-170 E61A) above, with A41E, K58A counted along it

human PD-1 ECD-Fc E146A = target: T24, human PD-1 ECD-Fc E146A (human, UniProt Q15116 21-170)
T24 construct: not shown: human IgG1 Fc, residues P101-K330
T24 sequence (Q15116 21-170 E146A): as the sequence (Q15116 21-170 E61A) above, with A41E, E126A counted along it

[1] = target: T1, human PD-1 ECD-Fc chimeric construct 10
Experimental: (§1) The human PD-1 Fc fusion constructs were harvested after 9 days and supernatants were tested for binding affinity to anti-PD-1 Fabs by Surface Plasmon Resonance (SPR). Culture supernatants containing PD-1 fusion proteins were immobilized onto an G-a-hu-IgG Fc SensEye® (Ssens BV, The Netherlands) for 15 minutes using a Continuous Flow Microspotter (CFM, Wasatch Microfluidics, Salt Lake City, US). After spotting, the SensEye® was positioned in an IBIS MX96 biosensor and captured proteins were fixed to the surface using FixIT kit (Ssens BV, The Netherlands). […] Fab association was performed for 15 minutes and antigen dissociation was performed for 30 minutes. The recorded binding responses were fitted to a simple Langmuir 1:1 binding model with Scrubber 2 software for calculation of the on-rate (kₒₙ or ka), off-rate (koff or kd) and affinity (KD) constants.
(§2) The change in binding affinity of Fab antibodies binding to the mutated PD-1 constructs compared to wild-type were expressed as the ratio of KD mutant/KD wild-type (normalized binding affinity).

[2] = target: T2, human PD-1 ECD-Fc chimeric construct 11
Experimental: as §1, §2

[3] = target: T3, human PD-1 ECD-Fc chimeric construct 19
Experimental: as §1, §2

[4] = target: T25, human PD-1 ECD-Fc chimeric construct 23 (human, UniProt Q15116 21-170)
T25 construct: not shown: human IgG1 Fc, residues P101-K330

[5] = target: T4, human PD-1 ECD-Fc chimeric construct 4
Experimental: as §1, §2

[6] = target: T5, human PD-1 ECD-Fc chimeric construct 2
Experimental: as §1, §2

| Binder | KD mutant/KD wild-type (human PD-1 ECD-Fc E84A) [ratio] | KD mutant/KD wild-type (human PD-1 ECD-Fc E61A) [ratio] | KD mutant/KD wild-type (human PD-1 ECD-Fc P101A) [ratio] | KD mutant/KD wild-type (human PD-1 ECD-Fc N58A) [ratio] | KD mutant/KD wild-type (human PD-1 ECD-Fc L128A) [ratio] | KD mutant/KD wild-type (human PD-1 ECD-Fc S57A) [ratio] | KD mutant/KD wild-type (human PD-1 ECD-Fc G103A) [ratio] | KD mutant/KD wild-type (human PD-1 ECD-Fc A154G) [ratio] | KD mutant/KD wild-type (human PD-1 ECD-Fc D26A) [ratio] | KD mutant/KD wild-type (human PD-1 ECD-Fc N33A) [ratio] | KD mutant/KD wild-type (human PD-1 ECD-Fc S87A) [ratio] | KD mutant/KD wild-type (human PD-1 ECD-Fc D85A) [ratio] | KD mutant/KD wild-type (human PD-1 ECD-Fc S157A) [ratio] | KD mutant/KD wild-type (human PD-1 ECD-Fc G90A) [ratio] | KD mutant/KD wild-type (human PD-1 ECD-Fc P162A) [ratio] | KD mutant/KD wild-type (human PD-1 ECD-Fc P160A) [ratio] | KD mutant/KD wild-type (human PD-1 ECD-Fc F56A) [ratio] | KD mutant/KD wild-type (human PD-1 ECD-Fc K78A) [ratio] | KD mutant/KD wild-type (human PD-1 ECD-Fc E146A) [ratio] | KD mutant/KD wild-type [1] [ratio] | further results |
| --- | --- | --- | --- | --- | --- | --- | --- | --- | --- | --- | --- | --- | --- | --- | --- | --- | --- | --- | --- | --- | --- |
| 13112.15380 Fab (Fab, V domains shown) VH: EVQLLESGGGLVQPGGSLRLSCAASGFTFSSYNMFWVRQAPGKGLEFVAEISGSNTGSRTWYAPAVKGRATISRDNSKNTLYLQMNSLRAEDTAVYYCAKSIYGGYCAGGYSCGVGLIDAWGQGTLVTVSS VL: SYELTQDPAVSVALGQTVRITCSGGSSDYYGWFQQKPGQAPVTVIYYNNKRPSDIPDRFSGSSSGNTASLTITGAQAEDEADYYCGNADSSVGVFGSGTKVTVL | 1 | 1 | 0.9 | 1 | 0.9 | 1.1 | 0.9 | 1 | 1.2 | 1 | 1 | 0.9 | 1 | 1 | 1.1 | 1 | 0.8 | 1.1 | 1 | 1 | KD mutant/KD wild-type [2]: 0.8 ratio; KD mutant/KD wild-type [3]: 0.8 ratio; KD mutant/KD wild-type [4]: 1.5 ratio; KD mutant/KD wild-type [5]: 0.6 ratio; KD mutant/KD wild-type [6]: 1 ratio |
| 12819.17149 Fab (Fab, V domains shown, monomeric Fab fragment) VH: EVQLLESGGGLVQPGGSLRLSCAASGFTFTRYDMVWVRQAPGKGLEWVAGIGDSNKMTRYAPAVKGRATISRDNSKNTLYLQMNSLRAEDTAVYYCAKGSCIACWDEAGRIDAWGQGTLVTVSS VL: SYELTQDPAVSVALGQTVRITCSGGGSYDGSSYYGWYQQKPGQAPVTVIYNNNNRPSDIPDRFSGSSSGNTASLTITGAQAEDEADYYCGSYDRPETNSDYVGMFGSGTKVTVL | 1.3 | 1.2 | 1.1 | 1.3 | 17.1 | 1.2 | 1.1 | 0.8 | 1.1 | 1 | 1.3 | 2.5 | 0.9 | 1 | 1.3 | 1 | 1.5 | 2.6 | 1.2 | 33.7 | KD mutant/KD wild-type [2]: 17.7 ratio; KD mutant/KD wild-type [3]: 175 ratio; KD mutant/KD wild-type [4]: 1.7 ratio; KD mutant/KD wild-type [5]: 0.3 ratio; KD mutant/KD wild-type [6]: 2.3 ratio |
| 12865.17150 Fab (Fab, V domains shown, monomeric Fab fragment) VH: EVQLLESGGGLVQPGGSLRLSCAASGFDFSDHGMQWVRQAPGKGLEYVGVIDTTGRYTYYAPAVKGRATISRDNSKNTLYLQMNSLRAEDTAVYYCAKTTCVGGYLCNTVGSIDAWGQGTLVTVSS VL: SYELTQDPAVSVALGQTVRITCSGGGSSSYYGWYQQKPGQAPVTVIYDDTNRPSGIPDRFSGSSSGNTASLTITGAQAEDEADYYCGGYEGSSHAGIFGSGTKVTVL | 1 | 1.1 | 1 | 0.7 | 2.1 | 1 | 0.8 | 1 | 0.8 | 1.1 | 0.9 | 1.6 | 1 | 0.8 | 1.1 | 0.8 | 0.5 | 0.7 | 1 | 13.8 | KD mutant/KD wild-type [2]: 5.4 ratio; binding result [3]: no binding (tested: 1 nM to 50 nM); KD mutant/KD wild-type [4]: 1 ratio; KD mutant/KD wild-type [5]: 0.6 ratio; KD mutant/KD wild-type [6]: 0.7 ratio |
